Columns and labels:
Test in all cases: ELISA, peptide coated at 1 µg/mL, mAb4G8 diluted 1000 times, HRP anti-mouse Igs
AβN3E-42 = target: AβN3E-42
AβN3pE-42 = target: AβN3pE-42
Aβ1-40 = target: Aβ1-40
Aβ1-40, sequence (peptide, as listed by the source): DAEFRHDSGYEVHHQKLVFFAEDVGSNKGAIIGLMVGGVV

AβN3pE-42, sequence (peptide, as listed by the source): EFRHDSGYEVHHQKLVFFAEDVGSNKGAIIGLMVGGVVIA

Substance: monoclonal antibody mAb4G8 (SENETEC Inc)
- absorbance at 450 nm (AβN3E-42): 1.39 A450
- absorbance at 450 nm (AβN3pE-42): 2.27 A450
- absorbance at 450 nm (Aβ1-40): 1.57 A450

Source: patent publication US7122374
